Assay [1] has as its target T1, 人Siglec-15抗原 (Siglec-15蛋白胞外段) (human) (UniProt Q6ZMC9).
T1 sequence (looked up): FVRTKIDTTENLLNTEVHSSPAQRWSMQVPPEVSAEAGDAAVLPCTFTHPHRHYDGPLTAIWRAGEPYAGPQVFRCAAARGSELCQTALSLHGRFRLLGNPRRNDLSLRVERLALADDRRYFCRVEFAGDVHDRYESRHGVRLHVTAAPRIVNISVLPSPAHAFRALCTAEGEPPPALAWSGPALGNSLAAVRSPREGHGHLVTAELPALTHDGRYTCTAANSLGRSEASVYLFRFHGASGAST
Description: ELISA, relative binding activity of HA-I purified by the method of Example 28; reference not given. (In general: ELISA stands for enzyme-linked immunosorbent assay.)

The target in assay [2] is T1, 人Siglec-15抗原 (Siglec-15蛋白胞外段) (human). As to the kind of experiment: ELISA, relative binding activity of HA-I purified by the method of Example 26; reference not given.
For assay [3] the target is unchanged. As to the kind of experiment: ELISA, relative binding activity of HA-I purified by the method of Example 31; reference not given.
Assay [4] has the same target. Description: ELISA, relative binding activity of HA-I purified by the method of Example 33; reference not given.
Assay [5] shares this target. Description: ELISA, relative binding activity of HA-I purified by the method of Example 32; reference not given.
Assay [6] has the same target. Description: ELISA, relative binding activity of HA-I purified by the method of Example 29; reference not given.
Assay [7] has the same target. Description: ELISA, relative binding activity of HA-I purified by the method of Example 30; reference not given.
For assay [8] the target is unchanged. As to the kind of experiment: ELISA, relative binding activity of HA-I purified by the method of Example 27; reference not given.
The target is the same in assay [9]. As to the kind of experiment: ELISA, relative binding activity of HA-I purified by the method of Example 24; reference not given.

B1: 抗Siglec-15单克隆抗体HA-I (人源化抗体分子, human IgG1/Ck) (antibody, V domains shown)
VH: QVQLVQSGAEVKKPGASVKVSCKASGYTFTDYNMFWVRQAPGQRLEWIGYIYPDNGGTGYNQNFKSKATLTVDNSASTAYMELSSLRSEDTAVYYCARSEYDYFDYWGQGTLVTVSS
VL: DIVLTQSPSSLSASVGDRVTITCRASQDISNYLNWYQQKPGKAVKLLIYYTSRLHSGVPSRFSGSGSGTDYTFTISSLQPEDIATYFCQQGNTLPLTFGQGTKVELKR
Regarding B1, the 结合活性(%) in [1] turned out to be 90%; in [2], 112%; in assay [3], 79%; in assay [4] it was 83%; in assay [5], 86%; in [6], 78%. The results for the 结合活性(%) in assay [7], in assay [8] and in assay [9] were 105%, 88% and 100%, respectively.

(Values after patent publication CN117736324A.)
